Data published in patent US11155643B2, “Glucan kinases and methods for processing starch using the same” (University of Kentucky Research Foundation, priority 2017, dated 2021).

B1: CtCBM30-StGWD: chimera of Clostridium thermocellum CelJ CBM30 and StGWD dikinase domain (protein)
chain: MGHHHHHHMEQKLISEEDLTSASSASAETVAPEGYRKLLDVQIFKDSPVVGWSGSGMGELETIGDTLPVDTTVTYNGLPTLRLNVQTTVQSGWWISLLTLRGWNTHDLSQYVENGYLEFDIKGKEGGEDFVIGFRDKVYERVYGLEIDVTTVISNYVTVTTDWQHVKIPLRDLMKINNGFDPSSVTCLVFSKRYADPFTVWFSDIKITSEDNEKSAPAIKVGVQINPVSGLPSGFQDLLHFVLDHVEDKNVETLLERLLEAREELRPLLLKPNNRLKDLLFLDIALDSTVRTAVERGYEELNNANPEKIMYFISLVLENLALSVDDNEDLVYCLKGWNQALSMSNGGDNHWALFAKAVLDRTRLALASKAEWYHHLLQPSAEYLGSILGVDQWALNIFTEEIIRAGSAASLSSLLNRLDPVLRKTANLGSWQIISPVEAVGYVVVVDELLSVQNEIYEKPTILVAKSVKGEEEIPDGAVALITPDMPDVLSHVSVRARNGKVCFATCFDPNILADLQAKEGRILLLKPTPSDIIYSEVNEIELQSSSNLVEAETSATLRLVKKQFGGCYAISADEFTSEMVGAKSRNIAYLKGKVPSSVGIPTSVALPFGVFEKVLSDDINQGVAKELQILMKKLSEGDFSALGEIRTTVLDLSAPAQLVKELKEKMQGSGMPWPGDEGPKRWEQAWMAIKKVWASKWNERAYFSTRKVKLDHDYLCMAVLVQEIINADYAFVIHTTNPSSGDDSEIYAEVVRGLGETLVGAYPGRALSFICKKKDLNSPQVLGYPSKPIGLFIKRSIIFRSDSNGEDLEGYAGAGLYDSVPMDEEEKVVIDYSSDPLITDGNFRQTILSNIARAGHAIEELYGSPQDIEGVVRDGKIYVVQTRPQM
modifications: Chimeric Protein
notes: chimera of Clostridium thermocellum CelJ CBM30 and StGWD dikinase domain
B2: St-GWD: full length Solanum tuberosum glucan, water dikinase, amino acids 1-1464 (protein, listed as Solanum tuberosum)
chain: MSNSLGNNLLYQGFLTSTVLEHKSRISPPCVGGNSLFQQQVISKSPLSTEFRGNRLKVQKKKIPMEKKRAFSSSPHAVLTTDTSSELAEKFSLGGNIELQVDVRPPTSGDVSFVDFQVTNGSDKLFLHWGAVKFGKETWSLPNDRPDGTKVYKNKALRTPFVKSGSNSILRLEIRDTAIEAIEFLIYDEAHDKWIKNNGGNFRVKLSRKEIRGPDVSVPEELVQIQSYLRWERKGKQNYPPEKEKEEYEAARTVLQEEIARGASIQDIRARLTKTNDKSQSKEEPLHVTKSDIPDDLAQAQAYIRWEKAGKPNYPPEKQIEELEEARRELQLELEKGITLDELRKTITKGEIKTKVEKHLKRSSFAVERIQRKKRDFGHLINKYTSSPAVQVQKVLEEPPALSKIKLYAKEKEEQIDDPILNKKIFKVDDGELLVLVAKSSGKTKVHLATDLNQPITLHWALSKSPGEWMVPPSSILPPGSIILDKAAETPFSASSSDGLTSKVQSLDIVIEDGNFVGMPFVLLSGEKWIKNQGSDFYVGFSAASKLALKAAGDGSGTAKSLLDKIADMESEAQKSFMHRFNIAADLIEDATSAGELGFAGILVWMRFMATRQLIWNKNYNVKPREISKAQDRLTDLLQNAFTSHPQYREILRMIMSTVGRGGEGDVGQRIRDEILVIQRNNDCKGGMMQEWHQKLHNNTSPDDVVICQALIDYKSDFDLGVYWKTLNENGITKERLLSYDRAIHSEPNFRGDQKGGLLRDLGHYMRTLKAVHSGADLESAIANCMGYKTEGEGFMVGVQINPVSGLPSGFQDLLHFVLDHVEDKNVETLLERLLEAREELRPLLLKPNNRLKDLLFLDIALDSTVRTAVERGYEELNNANPEKIMYFISLVLENLALSVDDNEDLVYCLKGWNQALSMSNGGDNHWALFAKAVLDRTRLALASKAEWYHHLLQPSAEYLGSILGVDQWALNIFTEEIIRAGSAASLSSLLNRLDPVLRKTANLGSWQIISPVEAVGYVVVVDELLSVQNEIYEKPTILVAKSVKGEEEIPDGAVALITPDMPDVLSHVSVRARNGKVCFATCFDPNILADLQAKEGRILLLKPTPSDIIYSEVNEIELQSSSNLVEAETSATLRLVKKQFGGCYAISADEFTSEMVGAKSRNIAYLKGKVPSSVGIPTSVALPFGVFEKVLSDDINQGVAKELQILMKKLSEGDFSALGEIRTTVLDLSAPAQLVKELKEKMQGSGMPWPGDEGPKRWEQAWMAIKKVWASKWNERAYFSTRKVKLDHDYLCMAVLVQEIINADYAFVIHTTNPSSGDDSEIYAEVVRGLGETLVGAYPGRALSFICKKKDLNSPQVLGYPSKPIGLFIKRSIIFRSDSNGEDLEGYAGAGLYDSVPMDEEEKVVIDYSSDPLITDGNFRQTILSNIARAGHAIEELYGSPQDIEGVVRDGKIYVVQTRPQM

What was measured:
[1] = cellulose phosphorylation assay (33P-β-ATP radio-label incorporation into cellulose); assay type: biochemical; conditions: FIG. 11C, 11D
Procedure: Next, it was tested whether phosphorylation could be directed towards cellulose, the most abundant polymer on earth, by building chimeras comprising cellulose-binding CBMs. Both the CBM30 and CBM44 were chosen from the cellulase CelJ of the thermophilic, gram-positive bacterium Clostridium thermocellum, which bind cellulose with high affinity. The engineered protein containing CtCBM30 and CtCBM44 was purified. The starch-phosphorylation assay was modified to develop an assay for measure phosphorylation of cellulose, which was obtained from Sigma-Avicel PH-101. To measure dikinase activity, the cellulose was incubated with the engineered chimeric dikinase in question along with ^33P-β-ATP, the ^33P-β-ATP and enzyme were washed out, and radio-label incorporation into the cellulose was measured.

[2] = glucose release from native starch treated with combinations of amylases, dikinase and phosphatase; assay type: biochemical, Arabidopsis; conditions: BAM3, ISA3; 25° C., 60 minutes; FIG. 7
Procedure: FIG. 7 includes a plot showing the glucose released for native Arabidopsis starch that was incubated at 25° C. for 60 minutes with combinations of amylases (BAM+ISA), dikinase (At-GWD), or phosphatase (At-SEX4), undigested starch was pelleted with a high-speed spin, the supernatant sugars were hydrolyzed via acid hydrolysis and glucose content was measured.
To observe how GWDs can be utilized to enhance starch utilization, native Arabidopsis starch was first treated with combinations of BAM3, ISA3, St-GWD, and At-SEX4. a high-speed spin was performed to remove the undigested starch, any remaining oligo-saccharides were hydrolyzed, and glucose released into the supernatant was measured (FIG. 7). Glucose was only released upon addition of amylases.
Native Arabidopsis starch was treated with combinations of BAM3, ISA3, StGWD, and AtSEX4, performed a high-speed spin to remove the undigested starch, hydrolyzed any remaining oligo-saccharides, and measured glucose released into the supernatant (FIG. 7). Glucose was only released upon addition of amylases, as expected.

[3] = stability of purified, concentrated protein on storage; assay type: physicochemical; conditions: 4° C., concentrated to 18 mg/ml
Procedure: In addition, these constructs were purified using a 3-step purification scheme to sufficient purity for enzymatic assays (FIGS. 9B,D & 10A). Constructs that express each of the individual domains were identified, as well as constructs just lacking the cTP. Expression yields for these constructs ranged from 2-65 mg/1 L of E. coli using a 3-step purification. One of the most promising St-GWD constructs allowed the instant inventors to purify 60-65 mg of >95% pure St-GWD per liter of E. coli using a 3-step purification protocol (FIGS. 10A & 10B). Importantly, the purified protein was concentrated to 18 mg/ml and the protein was stable at 4° C. for >1 WEEK.

Molecule | phosphorylation of cellulose [1] | effect on glucose release when added to amylases [2] | time the protein was stable [3] [WEEK]
B1 | robustly phosphorylated cellulose | – | –
B2 | – | almost doubled | > 1
